Laboratory results reported in patent US20260258115A1 (MAPP BIOPHARMACEUTICAL, published 2026).

Target: RSV F on RSV-A2 virus (Respiratory Syncytial Virus (RSV-A2), UniProt P03420 26-574)
Assay: cell-based or functional assay

Row | Binder | Neutralization IC50 (RSV subtype A)
1 | ADI-41515 (antibody, V domains shown) VH: QVQLVESGGGLVQPGGSLRLSCAASGFTFSDYAMSWVRQAPGKGLVWVSSISGSGKFTYYEDSLRGRVTISRDNSKNTVYLHMNSLRTEDTALYYCARLRIPVINEVDGAMDVWGQGTTVTVSS VL: SYELTQLPSVSVSPGQTARITCSGDALPKKFAYWYQQKSGQAPVLVIYEDTGRPSGIPERFSGSTSGTTATLTINGAQVEDEGDYYCYSADSSDNQGVFGGGTKVTVL | > 25 mg/L
2 | ADI-41467 (antibody, V domains shown) VH: EVQLVESGGGLVKPGGSLRLSCAASGFSFSSYNMNWVRQAPGKGLEWVSSISGGSSFVNYADSVKGRFTISRDNAKNSLYLQMSSLKAEDTAIYYCARDPVYCSAASCSAYFDSWGQGSLVTVSS VL: QSVLTQPPSVSGAPGQRVTISCTGSSSNIGAGYDVHWYQQLPGTAPKLLIYGNNNRPSGVPDRFSGFKSGSSASLAITGLQAEDEADYYCQSYDIGLSDSHVVFGGGTQLTVL | > 25 mg/L
3 | ADI-41505 (antibody, V domains shown) VH: QVQLQQSGAGLLKPSETLSLTYVVYGGSFSGYYWSWIRQPPGKGLEWVGDINHSTTTNYNPSLESRITISIDTSKNQFSLNLSSVTAADSAVYYCARGPKECTSSSCDRFGVDYFYYGMDVWGRGTTVTVSS VL: QSVLTQPPSVSGAPGQRVTISCTGSSANIGAGYDVHWYQQFPGTAPKLLIFGNSNRPSGVPDRFSGSKSGTSASLAITGLQAGDEADYYCQSYDGTLGGWVFGGGTQLTVL | > 25 mg/L
4 | ADI-41518 (antibody, V domains shown) VH: EVQLVESGGGLVKPGGSLRLSCAASGFTFSSYSMNWVRQAPGKGLEWVSSISSSSSYINYADSVKGRFTISRDNAKNSLYLQMNSLRAEDTALYYCARDLGYCSDTSCTPGIGYWGQGTLVTVSS VL: QPVLTQPPSVSGAPGQRVTISCTGSSSNIGAGYDVHWYQQLPGTAPKLLIYGNSNRPSGVPDRFSGSKSGTSASLAITGLQAEDEADYYCQSYDSGLSPWVFGGGTKLTVL | > 25 mg/L

Target: RSV F on RSV-A2 virus (Respiratory syncytial virus (RSV-A2))
Assay: cell-based or functional assay

Row | Binder | Neutralization IC50 (RSV subtype A)
5 | ADI-41317 (antibody, V domains shown) VH: EVQLVESGGGLVQPGGSLRLSCEASRFKFSTFWMAWVRQAPGKGLEWVANIKQDGSETYYLDSVKGRFTISRDNAKNSLFLQMKSLRAEDTAVYYCAGLWWGDLENWFDPWGQGTLVTVSS VL: QSVLTQPPSVSGAPGQRVTISCTGSSSNLGTGFDVHWYRQLPGTAPQLLIYGSTNRPSGVPDRFSGSKYGTSASLAITGLQAEDEADYYCQSYDSNLRAYVFGTVTKVTVL | 4.66 mg/L
6 | ADI-41347 (antibody, V domains shown) VH: EVQLVESGPGLVKPSGTLSLTCAVSGGSVSSDNWWSWVRQPPGKGIEWIGEIYPSGGTNYNPSLNSRVTISVDKSKNQFSLKLNSVTAADTAIYYCARAPFDSSGYHSNSVWGQGTLVTVSS VL: ETTLTQSPLSLPVTPGEPASISCRSSQSLLHSNGHNYLDWYVQKPGQSPQLLIYLSSNRASGVPDRFSGSGSGTDFTLRISRVEAEDVGVYYCMQPLQTPQTFGQGTKVEIK | > 25 mg/L
7 | ADI-41324 (antibody, V domains shown) VH: EVQLVESGGGLVQPGGSLRLSCAASGFTVSNNYMRWVRQAPGKGLEWVSVIYSSGSTDYADSVKGRFTISRDNSKNTLYLQMNSLRAEDTAVYYCARERTLFYYDSSGFFDYWGQGTLVTVSS VL: ETTLTQSPGTLSLSPGERATLSCRASQSVDSSYLAWYQQKPGQAPRLLIYGASNRATGIPDRFSGSGSGTDFTLTISRLEPEDFAVYYCQQYGRSLTFGGGTKLEIK | > 25 mg/L
8 | ADI-41341 (antibody, V domains shown) VH: QVQLVQSGAEVKKPGSSVKVSCKASGGTFSSYATHWVRQAPGQGLEWMGGIIPIFGRATYAQKFQGRVTISADESTSTAYMELSSLRSEDTAVYYCARGRDDRSGDHIAFLYHYGMDVWGQGSTVTVSS VL: QSVLTQPPSVSAAPGQKVSISCSGSSSNIGINHASWYQHLPGTAPKLLIYDNNKRPSGIPDRFSGSKSGTSATLGISGLQTGDEAAYYCGTWDTGLSAVVFGGGTKLTVL | > 25 mg/L
9 | ADI-41323 (antibody, V domains shown) VH: EVQLLESGGGVVRPGGSLRLSCAASGFTFDDYAMGWVRQAPGKGLEWVSGITWNAGSTAYAGSVKGRFTISRDNAKNSLFLQMNSLRAEDTAFYLCARHVDSSGPVARHFDYWGQGTLVTVSS VL: NFMLTQPHSVSESPGKTVTISCTRSSGSIARNYVQWYQQRPGSAPTIVIYEDNQRPSGVPDRFSGSIDSSSNSASLTISGLKTEDEADYYCQSYDPSNVVFGGGTKLTVL | > 25 mg/L
10 | ADI-41345 (antibody, V domains shown) VH: EVQLVQSGAEVRKPGESLKISCKGSGYNFASYWIAWVRQMPGKGLEWMGIIFPGDSDTRYSPSFQGQVTISVDKSISTAYLQWSSLKASDTAIYYCATSKYTFGYLDWGQGTLVTVSS VL: NFMLTQPHSVSESPGKTVTISCTRSSGSIASNYVQWYQQRPGSAPTTVIYEDNQRPSGVPDRFSGSIDSSSNSASLTISGLKTEDEADYYCQSYDTSNQVFGTGTKVTVL | > 25 mg/L
11 | ADI-41346 (antibody, V domains shown) VH: QVQLVQSGPEVKKPGESLKISCTLSASGLTTYWIGWVRQMPAKGLEWMGIIFPGDSDTRYSPSFQGQVTISADKSTNTAYLQWSGLKASDTAIYYCATLQTPVTGLDQWGQGTLVTVSS VL: NFMLTQPHSVSESPGKTVTISCTRSSGNIARSYVQWYQQRPGSAPTTVIHEDDQRPSGVPDRFSGSIDTSSNSASLTISGLKTEDEADYYCQSYDPSNYVFGTGTKVTVL | > 25 mg/L
12 | ADI-41318 (antibody, V domains shown) VH: EVQLLESGAEVKKPGSSVRVSCKAFGGTFSSYAFSWVRQAPGQGLEWMGGITPMFGTENYAPNFQGRVTITADKLTTTVYMELSRLRSEDSAVYYCAREGGRLGTTMGAFDMWGQGTMVTVSS VL: DIRLTQSPSSLSASVGDRVTITCRASHGISSALAWYQQRPGRVPQVLIFHASTLESGVPSRFSGSGSGTDFTLTISSLQPEDFATYYCQQFNSYPYTFGQGTKVEIK | > 25 mg/L
13 | ADI-41319 (antibody, V domains shown) VH: QVQLQESGPGLVKPSQTLSLTCTVSGGSISSGDYYWSWIRQPPGKGLEWIGYIFYSGTTYYNPSLKSRVTISLDTSQNQFSLKLSSVTAADTAVYYCARDGDEVDYVWGTRRYLDSWGRGTLVTVSS VL: EIVLTQSPGTLSLSPGERATLSCRASQSVSSRYLAWYQQKPGQAPRLLIHGASSRATGIPDRFSGSGSGTDFTLTISRLEPEDFAVYYCLQYGSLPKTFGQGTKVEIK | > 25 mg/L
14 | ADI-41342 (antibody, V domains shown) VH: QVQLVQSGAEVKKPGSSVKVSCKASGGTLTSYGVSWVRQAPGQGLEWMGGIIPIFGTVDYAQKFQGRVTITADEPTSTAYMELSSLTSDDTAVYYCARDPWVSGPVEFYYYFDVWGRGTLVTVSS VL: DIVLTESPATLSLSPGERATLSCRASQSINNRYLAWYQQKPGQAPRLLIFGASSRATGIPDRFSGSGSGTDFTLTISRLEPEDFAVYYCQQYGSTPPTFGQGTKVEIK | > 25 mg/L
15 | ADI-41322 (antibody, V domains shown) VH: QVQLVQSGAEVKKPGSSVRVSCKASGGSFSSYATSWVRQAPGQGLEWMGGIIPMYDAVNYAQKFQGRVTITADESTTTAYMELSSLRSEDTAVYYCARSSGYTGTNFFDYWGQGTLVTVSS VL: DIQMTQSPSSVSASVGDRVTITCRASQDISSWLAWYQQKPGKAPKLLIYTASSLQSGVPSRFSGSGSGTDFTLTISRLQPEDFATYYCQQANSFPRVTFGGGTKVEIK | > 25 mg/L
16 | ADI-41349 (antibody, V domains shown) VH: EVQLLESGGGLVQPGRSLRLSCTGSGFTFGDYAMNWVRQAPGKGLEWVGLIRSKDYGGTTEFAASLKGRLTISRDDSKSIAYLQMHSLKTEDSAVYYCTRAHLTDYTDINGYQYYFDYWGQGSPVTVSS VL: DIQMTQSPSSLSASVGDRVTITCQASQDISNFLNWYQQRPGKAPKLLIHDASNLETGVPSRFSGSGSRTEFTFTISSLQPEDIGTYYCQHYDNFPYTFGQGTKVEIK | > 25 mg/L
17 | ADI-41343 (antibody, V domains shown) VH: EVQLVESGGGLVKPGGSLRLSCAASGFTFSSYYMNWVRQAPGKGLEWVSSISGGSSYISYADSVKGRFTISRDNAKNSLYLQMNSLRAEDTAVYYCARVDTPMVRGYYFDYWGQGTLVTVSS VL: QSVLTQPPSVSGAPGRRVTISCTGSSSNIGAGYDVHWYQQLPGTAPKLLIFANSNRPSGVPDRFSGSKSGTSASLAITGLQAEDEADYYCQSYDSSLSGSVFGGGTKVTVL | 0.177 mg/L
18 | ADI-41344 (antibody, V domains shown) VH: EVQLVESGGGLVKPGGSLRLSCAASGSSFSSYYMNWVRQAPGKGLEWVSSISSSSTYIDYADSVKGRFTISRDNAKNSLFLQMNSLRAEDTAVYYCARVSSPMIRGYYLDYWGQGTLVTVSS VL: QPVLTQPPSVSGAPGQRVTISCTGSSSNIGAGYDVHWYQQLPGTAPKLVIHGNSNRPSGVPDRFSGSKSGTSASLAITGLQGEDEADYYCQSYDSSLSGSVFGGGTKLTVL | 0.0637 mg/L
19 | ADI-41320 (antibody, V domains shown) VH: QVQLVQSGVEVKKPGESLKISCRGFGYSAYNYWIAWVRQKPGKGLEYMGTIYLDDSDTIYSPSFQGEVTISADRSINTAYLQWNSLKASDTANYYCARQMDFYFDVWGRGTLVTVSS VL: QSVLTQPPSVSVSPGQTARITCSGDPLPRESAYWYQQKPGQAPVVVIFNDIERPLGIPARFSGSRSGTTVTLTISGAQAEDEADYYCQSADSRKTFVFGPGTKLTVL | > 25 mg/L
20 | ADI-41340 (antibody, V domains shown) VH: QVQLVQSGAEVKTPGSSVKVSCKASGGTFRSYPITWVRQAPGQGLEWMGTVIPVFDTVNYAPKFQGRVSITADESTNTAYMELSSLRSDDSAVYYCARDLGWLRPMTTVTSPHFDYWGQGTLVTVSS VL: QSVLTQPASVSGSPGQSITISCTGTSSDVGGYDFVSWYQQHPGKAPKLMISEVTDRPSGVSNRFSGSKSGNTASLTISGLQAEDEADYYCTSYTSSRTYVFGTGTKLTVL | > 25 mg/L
21 | ADI-41348 (antibody, V domains shown) VH: QVQLQESGPGLVKPSQTLSLTCAVSGGSISSGGYYWSWIRQHPGKGLEWIGYIYYSGSTYYNPSLKSPVTISVDTSKNQFSLKLTSVTAADTAVYYCARGDYYFDGSGRTTAAFDIWGQGTMVTVSS VL: DIQVTQSPSSLSASVGDRVTITCRASQSISTFLNWYQQKPGRAPKLLIYDASNLQSGVPSRVSGSGSGTDFTLTISSLHPEDFATYYCQQSYTTPYTFGQGTKVDIK | 0.0765 mg/L
